Laboratory results from publication PMC11372060, “Two KaiABC systems control circadian oscillations in one cyanobacterium” (Nature Communications, 2024).

How the values were obtained:
Test in all cases: native gel or EMSA; single recombinant Kai proteins or two of them together, 16 h at 30 °C in phosphorylation assay buffer (0.2 µg/µl dephosphorylated Strep-KaiC3, 0.1 µg/µl of the others); 4-16% clear native PAGE at 4 °C; Coomassie or anti-His blot
[1] = target: Strep-KaiC3 (Synechocystis sp. PCC 6803)
[2] = target: KaiB3 (recombinant, GST-tag removed) (Synechocystis sp. PCC 6803)
[3] = target: KaiA3-His6 (Synechocystis sp. PCC 6803)
[4] = target: the molecule itself

Molecule: Strep-KaiC3 (natural protein)
- stoichiometry N [1]: 6

Molecule: KaiB3 (recombinant, GST-tag removed) (natural protein)
- stoichiometry N [2]: 4

Molecule: KaiA3-His6 (natural protein)
- stoichiometry N [3]: > 2

B1: Synechococcus KaiA (recombinant, GST-tag removed) (natural protein, Synechococcus elongatus PCC 7942, UniProt Q79PF6 1-284, looked up)
chain: MLSQIAICIWVESTAILQDCQRALSADRYQLQVCESGEMLLEYAQTHRDQIDCLILVAANPSFRAVVQQLCFEGVVVPAIVVGDRDSEDPDEPAKEQLYHSAELHLGIHQLEQLPYQVDAALAEFLRLAPVETMADHIMLMGANHDPELSSQQRDLAQRLQERLGYLGVYYKRDPDRFLRNLPAYESQKLHQAMQTSYREIVLSYFSPNSNLNQSIDNFVNMAFFADVPVTKVVEIHMELMDEFAKKLRVEGRSEDILLDYRLTLIDVIAHLCEMYRRSIPRET
notes: KaiA of Synechococcus elongatus PCC 7942; plasmid provided by T. Kondo; Migrates at about 60 kDa on clear native PAGE (dimer); source: E. coli BL21(DE3), purified (glutathione-agarose 4B, PreScission cleavage); not shown: GST, N-terminal, cleaved
- stoichiometry N [4]: 2
